Source: patent US20190225703A1 (INNATE PHARMA, published 2019)

Tests used:
[1] = target: T1, human CD73 (ecto-5'-nucleotidase) expressed at the cell surface (human, UniProt P21589 27-549); test: flow cytometry titration on human-CD73-expressing cell line
T1 construct: Used for huCD73-expressing recombinant cell lines, MDA-MB-231 cells (endogenous CD73), HEK-293T cells with wild type CD73, and primary T and B cells; also called huCD73; wild type CD73
T1 sequence: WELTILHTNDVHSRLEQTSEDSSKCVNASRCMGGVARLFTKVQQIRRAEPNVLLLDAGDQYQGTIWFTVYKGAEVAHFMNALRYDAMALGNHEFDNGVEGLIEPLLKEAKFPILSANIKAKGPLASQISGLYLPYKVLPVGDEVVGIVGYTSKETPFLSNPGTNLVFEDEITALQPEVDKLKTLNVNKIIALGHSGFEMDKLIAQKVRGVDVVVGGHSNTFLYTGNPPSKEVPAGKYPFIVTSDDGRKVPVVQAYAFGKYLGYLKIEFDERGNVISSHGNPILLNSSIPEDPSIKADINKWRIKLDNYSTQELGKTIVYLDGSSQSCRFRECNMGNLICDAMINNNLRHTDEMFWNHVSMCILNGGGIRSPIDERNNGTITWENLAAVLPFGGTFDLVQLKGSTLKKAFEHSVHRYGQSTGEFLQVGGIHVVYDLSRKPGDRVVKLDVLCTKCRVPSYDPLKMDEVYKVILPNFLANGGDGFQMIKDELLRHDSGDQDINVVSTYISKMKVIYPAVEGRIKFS
Method: (§1) 10⁵ cells resuspended in PBS/0.2% BSA/0.02% NaN3 (named “staining buffer”) are distributed into round bottom 96W-microplates. Dose-range of anti-CD73 antibodies was added to the plates and cells are incubated for 45 min at 4° C. Cells were washed three times in staining buffer by spinning plates at 400 g for 3 min at 4° C. PE-coupled goat anti-mouse or goat anti-human IgG Fc fragment secondary antibodies (Beckman Coulter) diluted in staining buffer were added to the cells and plates are incubated for 30 additional minutes at 4° C. Cells were washed three times as described above and analyzed on an Accury C6 flow cytometer equipped with an HTFC plate reader.
(§2) Median of fluorescence vs. antibodies concentration was plotted on graphs and EC50 is calculated using GraphPad Prism program.

[2] = target: T1, human CD73 (ecto-5'-nucleotidase) …; test: flow cytometry titration on MDA-MB-231 cells, endogenous CD73
Method: as §1, §2

human CD73 mutant 4 = target: T2, human CD73 mutant 4 (human, UniProt P21589 27-549); test: flow cytometry titration on HEK-293T cells transfected with CD73 mutant 4
T2 construct: Transfected in HEK-293T cells
T2 chain: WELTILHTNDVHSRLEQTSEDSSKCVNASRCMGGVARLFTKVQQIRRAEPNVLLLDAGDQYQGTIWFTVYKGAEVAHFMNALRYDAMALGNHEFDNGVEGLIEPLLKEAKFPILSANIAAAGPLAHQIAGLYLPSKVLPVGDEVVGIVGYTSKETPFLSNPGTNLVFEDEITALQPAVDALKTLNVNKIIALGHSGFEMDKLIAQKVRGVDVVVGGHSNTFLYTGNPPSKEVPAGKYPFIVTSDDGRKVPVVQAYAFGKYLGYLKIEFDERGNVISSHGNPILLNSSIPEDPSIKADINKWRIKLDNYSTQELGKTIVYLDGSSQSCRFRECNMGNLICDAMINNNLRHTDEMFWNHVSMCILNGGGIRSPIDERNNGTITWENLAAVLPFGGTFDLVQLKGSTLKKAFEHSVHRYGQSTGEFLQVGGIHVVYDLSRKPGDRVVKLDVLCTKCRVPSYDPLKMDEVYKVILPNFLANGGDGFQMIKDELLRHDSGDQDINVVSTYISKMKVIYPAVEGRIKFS
Method: (§3) Anti-CD73 antibodies are tested for their binding to each mutant by flow cytometry. A first experiment is performed to determine antibodies that lose their binding to one or several mutants at one concentration. To confirm a loss of binding, titration of antibodies is done on antibodies for which binding seemed to be affected by the CD73 mutations (1-0.1-0.01-0.001 μg/ml).

human CD73 mutant 2 = target: T3, human CD73 mutant 2 (human, UniProt P21589 27-549); test: flow cytometry titration on HEK-293T cells transfected with CD73 mutant 2
T3 construct: Transfected in HEK-293T cells; The cell prints A1071, read as A107I
T3 chain: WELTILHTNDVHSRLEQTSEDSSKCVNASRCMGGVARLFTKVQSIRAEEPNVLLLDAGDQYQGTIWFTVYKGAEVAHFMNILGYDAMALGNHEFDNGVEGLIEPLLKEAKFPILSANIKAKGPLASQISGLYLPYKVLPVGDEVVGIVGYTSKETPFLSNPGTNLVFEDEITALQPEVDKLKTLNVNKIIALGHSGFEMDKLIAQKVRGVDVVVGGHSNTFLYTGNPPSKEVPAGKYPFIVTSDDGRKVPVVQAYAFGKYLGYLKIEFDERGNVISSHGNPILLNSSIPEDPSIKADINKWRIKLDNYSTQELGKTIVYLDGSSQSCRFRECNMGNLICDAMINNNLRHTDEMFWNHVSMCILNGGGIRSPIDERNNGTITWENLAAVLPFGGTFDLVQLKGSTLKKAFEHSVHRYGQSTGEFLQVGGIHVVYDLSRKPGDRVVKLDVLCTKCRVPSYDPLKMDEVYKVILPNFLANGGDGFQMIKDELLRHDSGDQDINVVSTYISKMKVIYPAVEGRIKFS
Method: as §3

B1: antibody 7H10 (antibody, human IgG1, V domains shown)
VH: DVQLQESGPGLVKPSQSLSLTCTVTGYSITSDYAWNWIRQFPGNKLEWMGYIIYSGSTSYNPSLNSRISITRDTSKNQFFLQLNSVTTEDTATYYCAREAYLYFDYWGQGTTLTVSS
VL: DIQMTQTTSSLSASLGDRVTISCRASQDINNYLNWYQQKPDGTVKLLIYYTSRLHSGVPSRFSGSGSGTDYSLTISNLEREDVATYFCQQGNTLPWTFGGGTKLEIK
- EC50 [1]: 0.187 µg/mL
- EC50 [2]: 0.054 µg/mL
- fold lower EC50 than AD2 [2]: ~8 fold
- EC50 (read off the curve) (human CD73 mutant 4): ~0.2 µg/mL
- binding result (human CD73 mutant 2): no binding (tested: 10 µg/ml)
